# T1: Human CEACAM5 (E398) (human, UniProt P06731 35-685, limits assumed)
# T1 construct: also called hCEACAM5
# T1 sequence: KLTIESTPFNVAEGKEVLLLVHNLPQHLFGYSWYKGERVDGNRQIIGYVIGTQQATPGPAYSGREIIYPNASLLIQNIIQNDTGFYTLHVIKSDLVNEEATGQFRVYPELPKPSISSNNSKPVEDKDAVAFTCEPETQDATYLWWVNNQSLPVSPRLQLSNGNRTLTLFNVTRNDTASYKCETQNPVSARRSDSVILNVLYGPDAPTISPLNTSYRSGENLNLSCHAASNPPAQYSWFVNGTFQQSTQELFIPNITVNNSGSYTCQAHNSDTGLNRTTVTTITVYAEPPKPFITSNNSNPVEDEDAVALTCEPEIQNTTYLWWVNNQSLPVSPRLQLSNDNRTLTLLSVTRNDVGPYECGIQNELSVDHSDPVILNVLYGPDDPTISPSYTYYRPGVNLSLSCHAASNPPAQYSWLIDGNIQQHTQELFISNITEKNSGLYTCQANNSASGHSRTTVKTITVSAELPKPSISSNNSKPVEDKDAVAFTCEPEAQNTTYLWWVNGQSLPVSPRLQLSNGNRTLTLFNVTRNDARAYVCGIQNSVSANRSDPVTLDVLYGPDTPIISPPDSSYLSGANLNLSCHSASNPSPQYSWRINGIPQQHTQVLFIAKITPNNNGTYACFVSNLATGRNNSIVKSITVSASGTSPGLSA
# T2: Human CEACAM5 V83A (human, UniProt P06731 35-685, limits assumed)
# T2 sequence: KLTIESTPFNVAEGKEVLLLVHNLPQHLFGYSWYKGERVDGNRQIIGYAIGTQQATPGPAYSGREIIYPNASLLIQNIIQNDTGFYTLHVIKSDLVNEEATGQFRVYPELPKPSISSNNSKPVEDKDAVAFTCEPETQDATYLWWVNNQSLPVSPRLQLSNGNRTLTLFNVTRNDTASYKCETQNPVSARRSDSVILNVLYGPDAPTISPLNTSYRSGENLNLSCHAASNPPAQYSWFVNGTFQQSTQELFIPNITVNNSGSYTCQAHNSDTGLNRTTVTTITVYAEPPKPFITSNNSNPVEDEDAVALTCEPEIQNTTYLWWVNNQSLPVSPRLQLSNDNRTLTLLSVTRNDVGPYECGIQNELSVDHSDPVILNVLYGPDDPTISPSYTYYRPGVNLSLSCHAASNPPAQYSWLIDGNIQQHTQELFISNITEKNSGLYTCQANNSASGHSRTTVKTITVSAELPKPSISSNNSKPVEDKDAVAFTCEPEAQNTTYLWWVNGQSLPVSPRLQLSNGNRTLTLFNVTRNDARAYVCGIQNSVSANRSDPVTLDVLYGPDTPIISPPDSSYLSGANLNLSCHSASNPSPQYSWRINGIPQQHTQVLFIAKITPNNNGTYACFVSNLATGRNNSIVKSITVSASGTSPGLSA
# T3: Human CEACAM5 I112V (human, UniProt P06731 35-685, limits assumed)
# T3 sequence: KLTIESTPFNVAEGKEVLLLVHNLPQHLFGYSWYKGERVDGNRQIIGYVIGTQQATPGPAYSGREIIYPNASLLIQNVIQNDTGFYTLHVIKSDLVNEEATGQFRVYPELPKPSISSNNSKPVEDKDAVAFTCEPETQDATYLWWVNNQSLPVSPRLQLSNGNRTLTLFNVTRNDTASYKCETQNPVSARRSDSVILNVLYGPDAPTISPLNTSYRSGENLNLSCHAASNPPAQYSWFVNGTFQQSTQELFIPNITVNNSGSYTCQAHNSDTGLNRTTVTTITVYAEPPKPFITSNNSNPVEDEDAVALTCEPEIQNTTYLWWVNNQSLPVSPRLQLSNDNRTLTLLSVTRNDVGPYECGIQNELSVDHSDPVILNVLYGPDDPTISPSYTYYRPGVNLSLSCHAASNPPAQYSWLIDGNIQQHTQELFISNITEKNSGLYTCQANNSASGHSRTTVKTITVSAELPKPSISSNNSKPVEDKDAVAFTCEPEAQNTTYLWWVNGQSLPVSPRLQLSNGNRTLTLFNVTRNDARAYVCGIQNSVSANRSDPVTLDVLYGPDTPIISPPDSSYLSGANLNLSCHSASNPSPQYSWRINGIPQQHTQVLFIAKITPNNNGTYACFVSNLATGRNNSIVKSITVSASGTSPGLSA
# T4: Human CEACAM5 I80V V83A I112V I113T (human, UniProt P06731 35-685, limits assumed)
# T4 chain: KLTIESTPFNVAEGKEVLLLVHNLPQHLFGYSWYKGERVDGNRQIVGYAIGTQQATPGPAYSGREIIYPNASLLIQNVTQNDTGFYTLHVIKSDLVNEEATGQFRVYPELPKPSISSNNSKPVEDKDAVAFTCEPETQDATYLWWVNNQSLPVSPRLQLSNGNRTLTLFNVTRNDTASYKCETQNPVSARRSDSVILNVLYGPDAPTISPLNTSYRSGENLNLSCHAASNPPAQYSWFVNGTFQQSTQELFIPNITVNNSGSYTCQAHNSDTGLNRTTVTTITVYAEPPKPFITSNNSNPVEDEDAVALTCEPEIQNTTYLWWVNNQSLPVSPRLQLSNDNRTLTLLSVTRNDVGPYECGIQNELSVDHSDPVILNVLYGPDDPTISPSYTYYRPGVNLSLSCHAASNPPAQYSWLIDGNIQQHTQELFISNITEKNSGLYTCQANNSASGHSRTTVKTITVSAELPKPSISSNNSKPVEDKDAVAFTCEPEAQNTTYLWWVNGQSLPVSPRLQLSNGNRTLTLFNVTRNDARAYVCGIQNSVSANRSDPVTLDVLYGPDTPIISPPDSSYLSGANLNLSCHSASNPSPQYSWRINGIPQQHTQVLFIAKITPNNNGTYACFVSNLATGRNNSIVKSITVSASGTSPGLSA
# Columns and labels:
# Experiment in all cases: SPR, 37C, pH 7.4
# Human CEACAM5 (E398) = molecular target: T1, Human CEACAM5 (E398)
# Human CEACAM5 V83A = molecular target: T2, Human CEACAM5 V83A
# Human CEACAM5 I112V = molecular target: T3, Human CEACAM5 I112V
# [1] = molecular target: T4, Human CEACAM5 I80V V83A I112V I113T
Binder,Kd (Human CEACAM5 (E398)) [nM],kon (Human CEACAM5 (E398)) [M⁻¹ s⁻¹],Kd (Human CEACAM5 V83A) [nM],kon (Human CEACAM5 V83A) [M⁻¹ s⁻¹],Kd (Human CEACAM5 I112V) [nM],kon (Human CEACAM5 I112V) [M⁻¹ s⁻¹],Kd [1] [nM],kon [1] [M⁻¹ s⁻¹]
"AB0466 F3' CEACAM5 TriNKET (bispecific antibody, human IgG1, kappa) not shown heavy: EVQLVESGGGLVKPGGSLRLSCAASGFTFSSYSMNWVRQAPGKGLEWVSSISSSSSYIYYADSVKGRFTISRDNAKNSLYLQMNSLRAEDTAVYYCARGAPIGAAAGWFDPWGQGTLVTVSSASTKGPSVFPLAPSSKSTSGGTAALGCLVKDYFPEPVTVSWNSGALTSGVHTFPAVLQSSGLYSLSSVVTVPSSSLGTQTYICNVNHKPSNTKVDKKVEPKSCDKTHTCPPCPAPELLGGPSVFLFPPKPKDTLMISRTPEVTCVVVDVSHEDPEVKFNWYVDGVEVHNAKTKPREEQYNSTYRVVSVLTVLHQDWLNGKEYKCKVSNKALPAPIEKTISKAKGQPREPQVCTLPPSRDELTENQVSLTCLVKGFYPSDIAVEWESNGQPENNYKTTPPVLDSDGSFFLYSWLTVDKSRWQQGNVFSCSVMHEALHNHYTQKSLSLSPG light: DIQMTQSPSSVSASVGDRVTITCRASQGISSWLAWYQQKPGKAPKLLIYAASSLQSGVPSRFSGSGSGTDFTLTISSLQPEDFATYYCQQGVSFPRTFGGGTKVEIKRTVAAPSVFIFPPSDEQLKSGTASVVCLLNNFYPREAKVQWKVDNALQSGNSQESVTEQDSKDSTYSLSSTLTLSKADYEKHKVYACEVTHQGLSSPVTKSFNRGEC",7.2,190000,66,140000,11,130000,61,590000
"AB0621 F3' CEACAM5 TriNKET (bispecific antibody, human IgG1, kappa) DIVMTQSPDSLAVSLGERATINCKSSHSLLYGNFQNNYLAWYQQKPGQPPKLLIYWASTRESGVPDRFSGSGSGTDFTLTISSLQAEDVAVYYCQQYYSYPYTFGCGTKLEIKGGGGSGGGGSGGGGSGGGGSQVQLVQSGAEVKKPGASVKVSCKASGYTFTAYTIHWVRQAPGQCLEWMGYINPSSGYTEYNQKFKDRTTLTADTSISTAYMELSRLRSDDTAVYYCTREGGLLWFDYWGQGTLVTVSSGSDKTHTCPPCPAPELLGGPSVFLFPPKPKDTLMISRTPEVTCVVVDVSHEDPEVKFNWYVDGVEVHNAKTKPREEQYNSTYRVVSVLTVLHQDWLNGKEYKCKVSNKALPAPIEKTISKAKGQPREPRVYTLPPCRDELTKNQVSLTCLVKGFYPSDIAVEWESNGQPENNYKTTPPVLVSDGSFTLYSKLTVDKSRWQQGNVFSCSVMHEALHNHYTQKSLSLSPG heavy: EVQLVESGGGLVKPGGSLRLSCAASGFTFSSYSMNWVRQAPGKGLEWVSSISSSSSYIYYADSVKGRFTISRDNAKNSLYLQMNSLRAEDTAVYYCARGAPIGAAAGWFDPWGQGTLVTVSSASTKGPSVFPLAPSSKSTSGGTAALGCLVKDYFPEPVTVSWNSGALTSGVHTFPAVLQSSGLYSLSSVVTVPSSSLGTQTYICNVNHKPSNTKVDKKVEPKSCDKTHTCPPCPAPELLGGPSVFLFPPKPKDTLMISRTPEVTCVVVDVSHEDPEVKFNWYVDGVEVHNAKTKPREEQYNSTYRVVSVLTVLHQDWLNGKEYKCKVSNKALPAPIEKTISKAKGQPREPQVCTLPPSRDELTENQVSLTCLVKGFYPSDIAVEWESNGQPENNYKTTPPVLDSDGSFFLYSWLTVDKSRWQQGNVFSCSVMHEALHNHYTQKSLSLSPG light: DIQMTQSPSSVSASVGDRVTITCRASQGISSWLAWYQQKPGKAPKLLIYAASSLQSGVPSRFSGSGSGTDFTLTISSLQPEDFATYYCQQGVSFPRTFGGGTKVEIKRTVAAPSVFIFPPSDEQLKSGTASVVCLLNNFYPREAKVQWKVDNALQSGNSQESVTEQDSKDSTYSLSSTLTLSKADYEKHKVYACEVTHQGLSSPVTKSFNRGEC",17,100000,34,44000,38,42000,22,64000
"AB0411 F3' CEACAM5 TriNKET (bispecific antibody, human IgG1, kappa) DIQLTQSPATLSVSPGERATLSCRASQSVSSSYLAWYQQKPGQAPRLLIYGASSRATGIPDRFSGSGSGTDFTLTISRLEPEDFAVYYCQQYNNWPLTFGCGTKVEIKGGGGSGGGGSGGGGSGGGGSQVQLVQSGGGLVQPGGSLRLSCAASGFTFTSYAMSWVRQAPGKCLEWVSAISGTGDSTFYADSVKGRFTFSRDNSKNTLYLQMNSLRAEDTAVYYCAKDLGWLQYGLFDYWGQGTLVTVSSGSDKTHTCPPCPAPELLGGPSVFLFPPKPKDTLMISRTPEVTCVVVDVSHEDPEVKFNWYVDGVEVHNAKTKPREEQYNSTYRVVSVLTVLHQDWLNGKEYKCKVSNKALPAPIEKTISKAKGQPREPRVYTLPPCRDELTKNQVSLTCLVKGFYPSDIAVEWESNGQPENNYKTTPPVLVSDGSFTLYSKLTVDKSRWQQGNVFSCSVMHEALHNHYTQKSLSLSPG heavy: EVQLVESGGGLVKPGGSLRLSCAASGFTFSSYSMNWVRQAPGKGLEWVSSISSSSSYIYYADSVKGRFTISRDNAKNSLYLQMNSLRAEDTAVYYCARGAPIGAAAGWFDPWGQGTLVTVSSASTKGPSVFPLAPSSKSTSGGTAALGCLVKDYFPEPVTVSWNSGALTSGVHTFPAVLQSSGLYSLSSVVTVPSSSLGTQTYICNVNHKPSNTKVDKKVEPKSCDKTHTCPPCPAPELLGGPSVFLFPPKPKDTLMISRTPEVTCVVVDVSHEDPEVKFNWYVDGVEVHNAKTKPREEQYNSTYRVVSVLTVLHQDWLNGKEYKCKVSNKALPAPIEKTISKAKGQPREPQVCTLPPSRDELTENQVSLTCLVKGFYPSDIAVEWESNGQPENNYKTTPPVLDSDGSFFLYSWLTVDKSRWQQGNVFSCSVMHEALHNHYTQKSLSLSPG light: DIQMTQSPSSVSASVGDRVTITCRASQGISSWLAWYQQKPGKAPKLLIYAASSLQSGVPSRFSGSGSGTDFTLTISSLQPEDFATYYCQQGVSFPRTFGGGTKVEIKRTVAAPSVFIFPPSDEQLKSGTASVVCLLNNFYPREAKVQWKVDNALQSGNSQESVTEQDSKDSTYSLSSTLTLSKADYEKHKVYACEVTHQGLSSPVTKSFNRGEC",1.7,270000,8.2,180000,2,190000,6.4,260000

# Reference: patent US20240124607A1 (Merck Sharp & Dohme, published 2024)
